Results reported in patent US20050164345A1, “Synthesis of human procollagens and collagens in recombinant DNA systems” (priority 1992, published 2005).
Like-named read-outs stand apart in the source and are kept apart here.

B1: proα1 chains of type III procollagen: type III procollagen expressed in insect cells without recombinant prolyl 4-hydroxylase (protein, UniProt P02461 24-1466, looked up)
pro-form: QQEAVEGGCSHLGQSYADRDVWKPEPCQICVCDSGSVLCDDIICDDQELDCPNPEIPFGECCAVCPQPPTAPTRPPNGQGPQGPKGDPGPPGIPGRNGDPGIPGQPGSPGSPGPPGICESCPTGPQNYSPQYDSYDVKSGVAVGGLAGYPGPAGPPGPPGPPGTSGHPGSPGSPGYQGPPGEPGQAGPSGPPGPPGAIGPSGPAGKDGESGRPGRPGERGLPGPPGIKGPAGIPGFPGMKGHRGFDGRNGEKGETGAPGLKGENGLPGENGAPGPMGPRGAPGERGRPGLPGAAGARGNDGARGSDGQPGPPGPPGTAGFPGSPGAKGEVGPAGSPGSNGAPGQRGEPGPQGHAGAQGPPGPPGINGSPGGKGEMGPAGIPGAPGLMGARGPPGPAGANGAPGLRGGAGEPGKNGAKGEPGPRGERGEAGIPGVPGAKGEDGKDGSPGEPGANGLPGAAGERGAPGFRGPAGPNGIPGEKGPAGERGAPGPAGPRGAAGEPGRDGVPGGPGMRGMPGSPGGPGSDGKPGPPGSQGESGRPGPPGPSGPRGQPGVMGFPGPKGNDGAPGKNGERGGPGGPGPQGPPGKNGETGPQGPPGPTGPGGDKGDTGPPGPQGLQGLPGTGGPPGENGKPGEPGPKGDAGAPGAPGGKGDAGAPGERGPPGLAGAPGLRGGAGPPGPEGGKGAAGPPGPPGAAGTPGLQGMPGERGGLGSPGPKGDKGEPGGPGADGVPGKDGPRGPTGPIGPPGPAGQPGDKGEGGAPGLPGIAGPRGSPGERGETGPPGPAGFPGAPGQNGEPGGKGERGAPGEKGEGGPPGVAGPPGGSGPAGPPGPQGVKGERGSPGGPGAAGFPGARGLPGPPGSNGNPGPPGPSGSPGKDGPPGPAGNTGAPGSPGVSGPKGDAGQPGEKGSPGAQGPPGAPGPLGIAGITGARGLAGPPGMPGPRGSPGPQGVKGESGKPGANGLSGERGPPGPQGLPGLAGTAGEPGRDGNPGSDGLPGRDGSPGGKGDRGENGSPGAPGAPGHPGPPGPVGPAGKSGDRGESGPAGPAGAPGPAGSRGAPGPQGPRGDKGETGERGAAGIKGHRGFPGNPGAPGSPGPAGQQGAIGSPGPAGPRGPVGPSGPPGKDGTSGHPGPIGPPGPRGNRGERGSEGSPGHPGQPGPPGPPGAPGPCCGGVGAAAIAGIGGEKAGGFAPYYGDEPMDFKINTDEIMTSLKSVNGQIESLISPDGSRKNPARNCRDLKFCHPELKSGEYWVDPNQGCKLDAIKVFCNMETGETCISANPLNVPRKHWWTDSSAEKKHVWFGESMDGGFQFSYGNPELPEDVLDVHLAFLRLLSSRASQNITYHCKNSIAYMDQASGNVKKALKLMGSNEGEFKAEGNSKFTYTVLEDGCTKHTGEWSKTVFEYRTRKAVRLPIVDIAPYDIGGPDQEFGVDVGPVCFL
modifications: pro-form
notes: type III procollagen expressed in insect cells without recombinant prolyl 4-hydroxylase

What was measured:
[1] = test system: prolyl 4-hydroxylase; test: Km values of prolyl 4-hydroxylase, assay based on decarboxylation of 2-oxo[1-14C]glutarate; assay type: biochemical, human; settings: other substrates held constant
Description: When the time course of protein expression was examined, Sf9 cells infected with recombinant viruses were labeled with [^35S]methionine (10 μCi/μl; Amersham; 1 Ci=[…]) for 2 hours at various time points between 24 and 50 hours after infection and collected for analysis by SDS/10% PAGE. To determine the maximal accumulation of recombinant protein, cells were harvested at various times from 24 to 96 hours after infection and analyzed on by SDS/10% PAGE. Both the 0.1% Triton X-100- and 1% SDS-soluble fractions of the cells were analyzed. Prolyl 4-hydroxylase activity was assayed by a method based on the decarboxylation of 2-oxo[1-^14C^−]glutarate (Kivirikko et al., Methods in Enzymology 82: 245-304 (1982)). The Km values were determined by varying the concentrations of one substrate in the presence of fixed concentration of the second, while the concentrations of the other substrates were held constant (Myllyla et al., Eur. J. Biochem. 80: 349-357 (1977)). Protein disulfide-isomerase activity of the β subunit was measured by glutathione: insulin transhydrogenase assay (Carmichael et al., J. Biol. Chem. 252: 7163-7167 (1977)). Western blot analysis was performed using a monoclonal antibody, 5B5, to the β subunit of human prolyl 4-hydroxylase (Hoyhtya et al., Eur. J. Biochem. 141: 477-482 (1984)). Prolyl 4-hydroxylase was purified by a procedure consisting of poly (L-proline) affinity chromatography, DEAE-cellulose chromatography, and gel filtration (Kivirikko et al., Methods in Enzymology 144: 96-114 (1987)).
Table 2 presented data on the enzymic activity of the recombinant enzyme. The Km values were determined by varying the concentration of one substrate in the presence of fixed concentrations of the second while the concentration of the other substrates were held constant.

[2] = thermal stability of type III collagen produced in insect cells, trypsin/chymotrypsin digestion after heating to various temperatures; assay type: physicochemical
Description: Other aliquots were studied by a radioimmuno-assay for the trimeric N-propeptide of human type III procollagen (Farmos Diagnostica) and a colorimetric method for 4-hydroxyproline (Kivirikko et al., Anal. Biochem. 19: 249-255 (1967)). Still further aliquots were digested with pepsin for 1 h at 22° C. (Bruckner et al., Anal. Biochem. 110: 360-368 (1981)), and the thermal stability of the pepsin-resistant recombinant type III collagen was measured by rapid digestion with a mixture of trypsin and chymotrypsin.
The thermal stability of the type III collagen expressed under different cell culture conditions was studied by using digestion with a mixture of trypsin and chymotrypsin after heating to various temperatures (Bruckner, et al., Anal. Biochem. 110: 360-368 (1981)). High Five cells were infected with viruses coding for the proα1 (III) chains and the a and β subunits of human prolyl 4-hydroxylase. The cells were harvested 72 h after infection, homogenized in a buffer containing 0.2% Triton X-100 and centrifuged. In these experiments, ascorbate was either added daily to the cell culture medium as usual or omitted during the infection. The Triton X-100 soluble proteins were first digested with pepsin for 1 h at 22° C. to convert type III procollagen to type III collagen (Pihlajaniemi et al., EMBO J. 6: 643-649 (1987)), and the trypsin/chymotrypsin digestion was then performed for aliquots of the pepsin-treated samples. The samples were then electrophoresed on 8% SDS-PAGE and analyzed by Coomassie staining. FIG. 11 provides the results of this thermal stability for a variety of collagen products. As set forth in panel A, the cells were infected only with the virus coding for the proα1 (III) chains, and ascorbate was omitted from the culture medium; panel B, the cells were infected only with the virus coding for the proα1 (III) chains, and ascorbate was present in the culture medium as usually; panel C, the cells were coinfected with viruses coding for the proα1 (III) chains, and the α and β subunits of prolyl 4-hydroxylase, but ascorbate was omitted from the culture medium; and panel D, the cells were infected with the three viruses, and ascorbate was present in the culture medium. […] The arrows show the position of the α1 (III) chains. […] (FIG. 11A). […] In contrast, when the proα1 (III) chains were produced in the presence of both prolyl 4-hydroxylase and ascorbate, the Tm of type III collagen was increased considerably, being at about 38-40° C. (FIG. 11D).

[3] = CD spectrum analysis of purified recombinant type III collagen; assay type: physicochemical
Description: Type III procollagen was expressed in High Five cells cultured either as monolayers or in suspension in shaker flasks. The cells were harvested 72 h after infection, homogenized in a buffer containing 0.1% Triton X-100 and centrifuged, and the supernatant of the cell homogenate was passed through a DEAE cellulose column to remove nucleic acids. The flow through fractions containing the type III procollagen were pooled and digested with pepsin. This converted the type III procollagen to type III collagen and digested most of the noncollagenous proteins. The type III collagen was then concentrated by salt precipitation, solubilized and treated with pepsin as above. The type III collagen was finally separated from pepsin and other remaining contaminants by gel filtration on a Sephacryl S 500-HR column. The fractions containing the type III collagen were pooled, dialyzed and lyophilized. The purified type III collagen was analyzed by 5% SDS-PAGE under reducing (FIG. 9, lane 2) and nonreducing (FIG. 9, lane 3) conditions. […] Amino acid and CD spectrum analysis were performed on the purified type III collagen. The amino acid composition of the recombinant type III obtained corresponded well with the amino acid composition reported for human type III collagen. […] The melting temperature of the recombinant type III collagen determined by CD spectrum analysis was 40° C.

[4] = protease digestion and thermal stability of recombinant type II human collagen from insect cells; assay type: physicochemical; settings: expressed in recombinant insect cells
Description: Purification and analysis of Collagen Types I and II. Collagens types I and II were purified as described supra.
The thermal stability of the recombinant type II human collagen expressed from the recombinant insect cells was measured and compared with native type I human collagen. […] The Tm of the recombinant type II collagen was up to about 40° C.

[5] = substrate 2-oxoglutarate, read-out: Km value, 2-oxoglutarate
[6] = substrate (Pro—Pro-Gly)10, read-out: Km value, (Pro—Pro-Gly)10
[7] = substrate Fe^+2, read-out: Km value, Fe^+2
[8] = substrate ascorbate, read-out: Km value, ascorbate

Molecule | Km [1, 5] | Km [1, 6] | Km [1, 7] | Km [1, 8] | also measured
α582β2: recombinant human prolyl 4-hydroxylase tetramer from Sf9 cells infected with α58 virus and β virus | 22 µM | 18 µM | 4 µM | 330 µM | –
recombinant type III collagen: recombinant human type III collagen produced in insect cells, pepsin-converted from type III procollagen | – | – | – | – | effect on the thermal stability ([2]; High Five cells, either ascorbate or prolyl 4-hydroxylase present without the other (FIG. 11B and 11C)): virtually no increasing effect; Tm of type III collagen ([2]; High Five cells, proα1 (III) chains expressed without prolyl 4-hydroxylase and ascorbate (FIG. 11A)): 32-34 °C; Tm of type III collagen ([2]; High Five cells, proα1 (III) chains produced in the presence of both prolyl 4-hydroxylase and ascorbate (FIG. 11D)): 38-40 °C; Tm of the triple helices by CD spectra compared with authentic type III collagen ([3]; purified human type III collagen produced in insect cells): virtually identical; melting temperature determined by CD spectrum analysis ([3]; purified type III collagen from High Five cells): 40 °C
recombinant type II collagen: recombinant type II human collagen expressed from recombinant insect cells | – | – | – | – | Tm of the recombinant type II collagen [4]: up to 40 °C; trypsin and chymotrypsin digestion [4]: resistance to trypsin and chymotrypsin digestion
α592β2: recombinant human prolyl 4-hydroxylase tetramer from Sf9 cells infected with α59 virus and β virus | 25 µM | 18 µM | 4 µM | 330 µM | –
B1 | – | – | – | – | Tm of the triple helices, lower than procollagen produced in the presence of recombinant prolyl 4-hydroxylase ([2]; insect cells, without recombinant prolyl 4-hydroxylase): about 6 °C
